Experimental data as given in the supplement of paper PMC9112550, “Optimization of the antimicrobial peptide Bac7 by deep mutational scanning” (BMC Biology, 2022).

Each sequence was assayed on Escherichia coli TOP10 (assay: shrunken log2 fold change of peptide-encoding DNA abundance (4.5 h post-induction vs induction); higher = less antimicrobial activity (less host growth inhibition)). Conditions: time post-induction: 4.5 h; library: site-saturation at positions 5, 18, 19, 20.
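Note: peptides expressed intracellularly from a pBAD plasmid library in pooled LB shake-flask culture, induced with 0.3% L-arabinose, DNA abundance read by NGS, three biological replicates, DESeq2 with apeglm shrinkage.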

Sequence	shrunken log2 fold change
RRIRQRPPRLPRPRPRPYYAPRP	-0.898
RRIRRRPPRLPRPRPRPACEPRP	0.192
RRIRRRPPRLPRPRPRPACKPRP	0.163
RRIRRRPPRLPRPRPRPADLPRP	-0.141
RRIRRRPPRLPRPRPRPAFRPRP	0.311
RRIRRRPPRLPRPRPRPAGDPRP	0.563
RRIRRRPPRLPRPRPRPAGNPRP	-0.0218
RRIRRRPPRLPRPRPRPAHTPRP	0.448
RRIRRRPPRLPRPRPRPAIHPRP	0.131
RRIRRRPPRLPRPRPRPAIMPRP	0.275
RRIRRRPPRLPRPRPRPAKDPRP	0.185
RRIRRRPPRLPRPRPRPAKRPRP	0.863
RRIRRRPPRLPRPRPRPAKTPRP	0.408
RRIRRRPPRLPRPRPRPALGPRP	0.269
RRIRRRPPRLPRPRPRPAMIPRP	0.0243
RRIRRRPPRLPRPRPRPAMLPRP	1.02
RRIRRRPPRLPRPRPRPANYPRP	-0.049
RRIRRRPPRLPRPRPRPAPRPRP	0.996
RRIRRRPPRLPRPRPRPARAPRP	0.523
RRIRRRPPRLPRPRPRPARIPRP	0.0165
RRIRRRPPRLPRPRPRPASCPRP	0.0969
RRIRRRPPRLPRPRPRPASHPRP	0.4
RRIRRRPPRLPRPRPRPAVWPRP	0.399
RRIRRRPPRLPRPRPRPAWAPRP	0.791
RRIRRRPPRLPRPRPRPAWDPRP	0.324

Sequence	shrunken log2 fold change
RRIRRRPPRLPRPRPRPCADPRP	0.0637
RRIRRRPPRLPRPRPRPCAHPRP	0.067
RRIRRRPPRLPRPRPRPCAQPRP	-0.0794
RRIRRRPPRLPRPRPRPCAYPRP	0.0425
RRIRRRPPRLPRPRPRPCCPPRP	0.467
RRIRRRPPRLPRPRPRPCCYPRP	0.0352
RRIRRRPPRLPRPRPRPCEFPRP	-0.109
RRIRRRPPRLPRPRPRPCHSPRP	0.00408
RRIRRRPPRLPRPRPRPCICPRP	-0.0935
RRIRRRPPRLPRPRPRPCIIPRP	-0.474
RRIRRRPPRLPRPRPRPCLSPRP	-0.114
RRIRRRPPRLPRPRPRPCLTPRP	0.0744
RRIRRRPPRLPRPRPRPCNGPRP	-0.199
RRIRRRPPRLPRPRPRPCNTPRP	-0.295
RRIRRRPPRLPRPRPRPCNYPRP	0.159
RRIRRRPPRLPRPRPRPCPFPRP	0.0522
RRIRRRPPRLPRPRPRPCPKPRP	-0.0745
RRIRRRPPRLPRPRPRPCPQPRP	0.0779
RRIRRRPPRLPRPRPRPCQAPRP	0.0144
RRIRRRPPRLPRPRPRPCRTPRP	0.173
RRIRRRPPRLPRPRPRPCSDPRP	0.00368
RRIRRRPPRLPRPRPRPCSHPRP	-0.18
RRIRRRPPRLPRPRPRPCSYPRP	-0.19
RRIRRRPPRLPRPRPRPCTTPRP	0.212
RRIRRRPPRLPRPRPRPCWNPRP	-0.00252

Sequence	shrunken log2 fold change
RRIRRRPPRLPRPRPRPCYVPRP	-0.583
RRIRRRPPRLPRPRPRPDACPRP	0.00716
RRIRRRPPRLPRPRPRPDCLPRP	-0.136
RRIRRRPPRLPRPRPRPDCVPRP	-0.0143
RRIRRRPPRLPRPRPRPDDSPRP	-0.0232
RRIRRRPPRLPRPRPRPDFPPRP	0.897
RRIRRRPPRLPRPRPRPDHYPRP	-2.95
RRIRRRPPRLPRPRPRPDIKPRP	-0.374
RRIRRRPPRLPRPRPRPDKCPRP	-0.0562
RRIRRRPPRLPRPRPRPDKLPRP	-0.115
RRIRRRPPRLPRPRPRPDKYPRP	-0.259
RRIRRRPPRLPRPRPRPDLLPRP	0.0733
RRIRRRPPRLPRPRPRPDMTPRP	0.0544
RRIRRRPPRLPRPRPRPDNGPRP	-0.0214
RRIRRRPPRLPRPRPRPDPAPRP	1.18
RRIRRRPPRLPRPRPRPDQAPRP	-0.00925
RRIRRRPPRLPRPRPRPDQGPRP	-0.0712
RRIRRRPPRLPRPRPRPDQIPRP	-0.122
RRIRRRPPRLPRPRPRPDQSPRP	0.0941
RRIRRRPPRLPRPRPRPDREPRP	0.0377
RRIRRRPPRLPRPRPRPDRYPRP	-0.0438
RRIRRRPPRLPRPRPRPDSCPRP	-0.00351
RRIRRRPPRLPRPRPRPDSNPRP	0.0666
RRIRRRPPRLPRPRPRPDSWPRP	0.115
RRIRRRPPRLPRPRPRPDTSPRP	0.0612
